Laboratory results from doi:10.1101/2023.08.09.551721 (bioRxiv, 2023).

Biological target: histone H4 (in the nucleosome) (Xenopus laevis, UniProt P62799)
Test: cryo-EM structure

binding result: binds
B1: DDM1-HELLS chimeric protein (DDM1^HELLS) (enzyme)
chain: MVSLRSRKVIPASEMVSDGKTEKDASGDSPTSVLNEEENCEEKSVTVVEEEILLAKNGDSSLISEAMAQEEEQLLKLREDEEKANNAGSAVAPNLNETQFTKLDELLTQTQLYSEFLLEKMEDITINGIESESQKAEPEKTGRGRKRKAASQYNNTKAKRAVAAMISRSKEDGETINSDLTEEETVIKLQNELCPLLTGGQLKSYQLKGVKWLISLWQNGLNGILADQMGLGKTIQTIGFLSHLKGNGLDGPYLVIAPLSTLSNWFNEIARFTPSINAIIYHGDKNQRDELRRKHMPKTVGPKFPIVITSYEVAMNDAKRILRHYPWKYVVIDEGHRLKNHKCKLLRELKHLKMDNKLLLTGTPLQNNLSELWSLLNFILPDIFTSHDEFESWFDFSEKNKNEATKEEEEKRRAQVVSKLHGILRPFILRRMKCDVELSLPRKKEIIMYATMTDHQKKFQEHLVNNTLEAHLGENAIRGIELSPTGRPKRRTRKSINYSKIDDFPNELEKLISQIQPEVDRERAVVEVNIPVEQGWKGKLNNLVIQLRKNCNHPDLLQGQIDGSYLYPPVEEIVGQCGKFRLLERLLVRLFANNHKVLIFSQWTKLLDIMDYYFSEKGFEVCRIDGSVKLDERRRQIKDFSDEKSSCSIFLLSTRAGGLGINLTAADTCILYDSDWNPQMDLQAMDRCHRIGQTKPVHVYRLSTAQSIETRVLKRAYSKLKLEHVVIGQGQFHQERAKSSTPLEEEDILALLKEDETAEDKLIQTDISDADLDRLLDRSDLTITAPGETQAAEAFPVKGPGWEVVLPSSGGMLSSLNS
